In US20200276302A1 (OSAKA UNIVERSITY, published 2020):

What was measured:
[1] = target: T1, mouse PlexinA1 recombinant protein expressed on Ba/F3 cells (mouse, UniProt P70206 25-1290); test: cell ELISA on mouse PlexinA1-expressing Ba/F3 cells against Ba/F3 cells
T1 construct: also called Mouse PlexinA1/BaF3; mouse PlexinA1-expressing cell line
Protocol: The antibodies obtained above were subjected to cell ELISA by the following procedure. Initially, 384-well plates were prepared, and mouse PlexinA1-expressing Ba/F3 cells and Ba/F3 cells (see Example 11) were each captured onto the bottom of different wells. After washing each well of the plates with PBS, the prepared antibodies were added at 20 μL/well, and the mixture was allowed to stand at room temperature for 1 hour. Then, each well was washed with 0.05% Tween 20-PBS, HRP-labeled anti-rabbit IgG antibody (Betyl, A120-101P) diluted 10000 times with 2% FBS-PBS was added at 20 μL/well, and the mixture was allowed to stand at room temperature for 1 hour. After washing each well of the plates with 0.05% Tween 20-PBS, the substrate solution (ABTS peroxidase substrate system) was dispensed at 20 μL/well to develop color for 1 hour at room temperature. Then, binding of the antibodies to mouse PlexinA1 was confirmed by measuring absorbance at 405 nm using SpectraMax from Molecular Devices, LLC.

[2] = target: soluble mouse PlexinA1 protein (mouse, UniProt P70206 28-1242); test: BLI (OctetRED384), antibody on Protein G biosensor, mouse PlexinA1 at 260 nM
Protocol: Note that the L chains of the antibodies derived from the human antibody naive library were not chimerized.
Specifically, the antibodies adjusted to 10 µg/mL by 10× diluted HBS-EP+(GE healthcare, BR-1006-69) were immobilized onto Protein G biosensors (ForteBIO), and human and mouse PlexinA1 adjusted to 260 nM with HBS-EP+ were applied thereto. The Protein G biosensors were regenerated using 10 mmol/L Glycine-HCl, pH 1.5 (GE Healthcare, BR-1003-54). After the measurement, analytical software Data analysis 7.0 (ForteBIO) was used to compute amounts of binding (FIG. 5). […] In FIG. 5, the vertical axis represents amounts of binding to human and mouse PlexinA1.

soluble mouse PlexinA1 protein, sequence (P70206 other isoform, or with tags, fused parts or gaps limits assumed): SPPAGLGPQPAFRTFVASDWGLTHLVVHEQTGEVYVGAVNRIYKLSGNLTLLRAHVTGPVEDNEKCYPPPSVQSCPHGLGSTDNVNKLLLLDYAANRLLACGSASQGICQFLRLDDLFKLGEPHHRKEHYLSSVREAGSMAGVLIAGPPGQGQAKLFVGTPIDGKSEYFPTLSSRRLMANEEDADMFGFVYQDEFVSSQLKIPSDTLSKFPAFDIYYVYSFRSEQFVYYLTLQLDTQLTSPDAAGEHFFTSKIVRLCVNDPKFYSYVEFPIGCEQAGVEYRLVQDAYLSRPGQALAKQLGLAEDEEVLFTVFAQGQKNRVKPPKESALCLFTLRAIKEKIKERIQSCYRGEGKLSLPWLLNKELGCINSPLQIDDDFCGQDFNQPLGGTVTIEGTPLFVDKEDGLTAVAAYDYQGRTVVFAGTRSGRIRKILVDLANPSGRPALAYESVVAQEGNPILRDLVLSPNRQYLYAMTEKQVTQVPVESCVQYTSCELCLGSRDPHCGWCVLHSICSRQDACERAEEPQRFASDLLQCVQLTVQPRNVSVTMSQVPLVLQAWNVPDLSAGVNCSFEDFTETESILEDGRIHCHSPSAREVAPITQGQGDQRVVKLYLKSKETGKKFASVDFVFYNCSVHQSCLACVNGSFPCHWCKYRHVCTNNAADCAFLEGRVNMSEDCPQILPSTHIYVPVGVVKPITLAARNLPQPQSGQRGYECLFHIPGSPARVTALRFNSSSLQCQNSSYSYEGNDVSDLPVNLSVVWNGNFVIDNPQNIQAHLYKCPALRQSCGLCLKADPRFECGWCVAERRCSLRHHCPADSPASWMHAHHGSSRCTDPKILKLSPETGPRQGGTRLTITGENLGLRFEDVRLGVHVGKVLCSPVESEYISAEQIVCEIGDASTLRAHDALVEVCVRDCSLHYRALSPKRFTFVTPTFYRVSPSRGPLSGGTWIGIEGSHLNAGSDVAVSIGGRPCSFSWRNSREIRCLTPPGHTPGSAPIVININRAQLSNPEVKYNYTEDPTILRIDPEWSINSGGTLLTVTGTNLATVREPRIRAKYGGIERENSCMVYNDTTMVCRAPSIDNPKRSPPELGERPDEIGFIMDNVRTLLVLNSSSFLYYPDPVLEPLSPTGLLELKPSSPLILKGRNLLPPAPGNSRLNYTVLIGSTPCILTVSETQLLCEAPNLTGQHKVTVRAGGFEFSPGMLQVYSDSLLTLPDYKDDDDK
T1 sequence (P70206 other isoform, or with tags, fused parts or gaps limits assumed): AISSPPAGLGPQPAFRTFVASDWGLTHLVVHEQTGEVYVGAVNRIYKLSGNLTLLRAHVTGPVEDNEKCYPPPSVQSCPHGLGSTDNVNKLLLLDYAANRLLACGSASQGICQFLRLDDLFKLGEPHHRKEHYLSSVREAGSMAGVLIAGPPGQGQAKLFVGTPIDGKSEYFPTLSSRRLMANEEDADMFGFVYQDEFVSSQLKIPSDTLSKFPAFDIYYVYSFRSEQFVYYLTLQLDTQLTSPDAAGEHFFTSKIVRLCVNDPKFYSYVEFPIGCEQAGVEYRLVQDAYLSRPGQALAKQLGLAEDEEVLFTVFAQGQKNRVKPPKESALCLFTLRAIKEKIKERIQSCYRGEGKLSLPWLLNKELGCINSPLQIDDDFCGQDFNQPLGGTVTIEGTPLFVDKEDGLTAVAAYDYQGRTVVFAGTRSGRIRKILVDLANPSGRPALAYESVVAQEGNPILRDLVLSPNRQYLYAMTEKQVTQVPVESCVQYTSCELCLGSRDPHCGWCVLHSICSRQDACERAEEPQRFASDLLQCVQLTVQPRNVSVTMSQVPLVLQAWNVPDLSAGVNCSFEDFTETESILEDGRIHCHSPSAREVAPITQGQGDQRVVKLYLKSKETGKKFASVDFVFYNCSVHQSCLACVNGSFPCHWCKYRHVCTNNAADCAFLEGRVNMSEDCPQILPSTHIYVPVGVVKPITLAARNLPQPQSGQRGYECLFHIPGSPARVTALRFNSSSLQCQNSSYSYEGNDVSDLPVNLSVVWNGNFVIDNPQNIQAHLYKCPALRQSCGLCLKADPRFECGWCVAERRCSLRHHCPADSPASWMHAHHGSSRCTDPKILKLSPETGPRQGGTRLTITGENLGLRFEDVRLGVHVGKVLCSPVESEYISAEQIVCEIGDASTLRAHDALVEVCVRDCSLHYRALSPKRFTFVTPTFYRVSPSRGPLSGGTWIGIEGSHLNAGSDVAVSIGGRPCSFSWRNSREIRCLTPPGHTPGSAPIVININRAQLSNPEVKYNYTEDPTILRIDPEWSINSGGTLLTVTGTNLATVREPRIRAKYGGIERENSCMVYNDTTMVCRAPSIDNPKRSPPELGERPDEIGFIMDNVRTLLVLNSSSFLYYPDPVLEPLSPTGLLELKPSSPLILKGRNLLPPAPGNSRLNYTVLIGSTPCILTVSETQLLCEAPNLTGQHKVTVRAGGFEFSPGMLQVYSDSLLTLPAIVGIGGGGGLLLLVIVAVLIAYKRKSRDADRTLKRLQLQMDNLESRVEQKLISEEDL

B1: anti-mouse PlexinA1 antibody PXB693 (antibody)
heavy: QSVEESGGRLVTPGTPLTLTCTVSGFSLSSSAMTWVRQAPGKGLEWIGIINNSNIAAYASWTKGRFTISKTSTTVDLKITSPIIEDTATYFCARGDVGTTHYFNIWGPGTLVTVSSGQPKAPSVFPLAPCCGDTPSSTVTLGCLVKGYLPEPVTVTWNSGTLTNGVRTFPSVRQSSGLYSLSSVVSVTSSSQPVTCNVAHPATNTKVDKTVAPSTCSKPMCPPPELLGGPSVFIFPPKPKDTLMISRTPEVTCVVVDVSQDDPEVQFTWYINNEQVRTARPPLREQQFNSTIRVVSTLPIAHQDWLRGKEFKCKVHNKALPAPIEKTISKARGQPLEPKVYTMGPPREELSSRSVSLTCMINGFYPSDISVEWEKNGKAEDNYKTTPTVLDSDGSYFLYSKLSVPTSEWQRGDVFTCSVMHEALHNHYTQKSISRSPGK
light: AAVLTQTPSPVSAVVGGTVSISCQSSKSVYNNNWLSWFQQKPGQPPKLLIYGASTLASGVPSRFKGSGSGTQFTLAISDVQCDDAATYYCAGGYINSDNFAFGGGTEVVVKGDPVAPTVLIFPPAADQVATGTVTIVCVANKYFPDVTVTWEVDGTTQTTGIENSKTPQNSADCTYNLSSTLTLTSTQYNSHKEYTCKVTQGTTSVVQSFNRGDC
- binding result [1]: binds

B2: mouse chimeric human/mouse cross-reactive PlexinA1 antibody 359B2-2-3-6-mFc (antibody, mouse IgG2a, lambda, V domains shown)
VH: QVQLVQSGAEVKKPGASVKVSCKASGYTFTSYYMHWVRQAPGQGLEWMGIINPSGGSTSYAQKFQGRVTMTRDTSTSTVYMELSSLRSEDTAVYYCARAPGHYYYGMDVWGQGTTVTVSS
VL: SYELTQPPSVSVSPGQTASITCSGDKLEDKYASWYQLKPGHSPVLVIYQDSKRPSGIPERFSGSNSGNTATLTISGTQAMDEADYYCRAWDSNTGDVVFGGGTKLTVLR
notes: Mouse IgG2a heavy chain constant region; human light chain kept
- binding result [2]: binds

B3: anti-mouse PlexinA1 antibody PXB361b (antibody)
heavy: QSLEESGGDLVKPEGSLTLSCTASGFTISSSYWICWVRQAPGKGLEWIACIYVGSGDGYTYYASWAKGRFTISKTSSTTVTLRMTSLTAADTATYFCARGGDGGVGGFDFFDPWGPGTLVTVSSGQPKAPSVFPLAPCCGDTPSSTVTLGCLVKGYLPEPVTVTWNSGTLTNGVRTFPSVRQSSGLYSLSSVVSVTSSSQPVTCNVAHPATNTKVDKTVAPSTCSKPMCPPPELLGGPSVFIFPPKPKDTLMISRTPEVTCVVVDVSQDDPEVQFTWYINNEQVRTARPPLREQQFNSTIRVVSTLPIAHQDWLRGKEFKCKVHNKALPAPIEKTISKARGQPLEPKVYTMGPPREELSSRSVSLTCMINGFYPSDISVEWEKNGKAEDNYKTTPTVLDSDGSYFLYSKLSVPTSEWQRGDVFTCSVMHEALHNHYTQKSISRSPGK
light: DVVLTQTPASVSEPVGGTVTIKCQATESINRNCAWYQQKPGQPPKLLIYRASTLASGVPSRFKGSGSGTEFTLTISDLECADAATYYCQCTDYGTYYVAFGGGTEVVVKGDPVAPTVLIFPPAADQVATGTVTIVCVANKYFPDVTVTWEVDGTTQTTGIENSKTPQNSADCTYNLSSTLTLTSTQYNSHKEYTCKVTQGTTSVVQSFNRGDC
notes: Antagonist antibody
- binding result [1]: binds

B4: mouse chimeric anti-mouse PlexinA1 antibody PXB693-mFc (antibody, mouse IgG2a, kappa)
heavy: QSVEESGGRLVTPGTPLTLTCTVSGFSLSSSAMTWVRQAPGKGLEWIGIINNSNIAAYASWTKGRFTISKTSTTVDLKITSPIIEDTATYFCARGDVGTTHYFNIWGPGTLVTVSSAKTTAPSVYPLAPVCGDTTGSSVTLGCLVKGYFPEPVTLTWNSGSLSSGVHTFPAVLQSDLYTLSSSVTVTSSTWPSQSITCNVAHPASSTKVDKKIEPRGPTIKPCPPCKCPAPNLRRGPKVFIFPPKIKDVLMISLSPIVTCVVVDVSEDDPDVQISWFVNNVEVHTAQTQTHREDYNSTLRVVSALPIQHQDWMSGKEFKCKVNNKDLPAPIERTISKPKGSVRAPQVYVLPPPEEEMTKKQVTLTCMVTDFMPEDIYVEWTNNGKTELNYKNTEPVLDSDGSYFMYSKLRVEKKNWVERNSYSCSVVHEGLHNHHTTKSFSRTPGK
light: AAVLTQTPSPVSAVVGGTVSISCQSSKSVYNNNWLSWFQQKPGQPPKLLIYGASTLASGVPSRFKGSGSGTQFTLAISDVQCDDAATYYCAGGYINSDNFAFGGGTEVVVKRADAAPTVSIFPPSSEQLTSGGASVVCFLNNFYPKDINVKWKIDGSERQNGVLNSWTDQDSKDSTYSMSSTLTLTKDEYERHNSYTCEATHKTSTSPIVKSFNRNEC
notes: Rabbit variable regions on mouse IgG2a heavy and mouse light chain constant regions; Agonist antibody
- binding result [2]: binds

B5: mouse chimeric anti-mouse PlexinA1 antibody PXB361b-mFc (antibody, mouse IgG1, kappa)
heavy: QSLEESGGDLVKPEGSLTLSCTASGFTISSSYWICWVRQAPGKGLEWIACIYVGSGDGYTYYASWAKGRFTISKTSSTTVTLRMTSLTAADTATYFCARGGDGGVGGFDFFDPWGPGTLVTVSSAKTTPPSVYPLAPGSAAQTNSMVTLGCLVKGYFPEPVTVTWNSGSLSSGVHTFPAVLQSDLYTLSSSVTVPSSTWPSETVTCNVAHPASSTKVDKKIVPRDCGCKPCICTVKEVSKVFIFPPKPKDVLTITLTPKVTCVVVDISKDDPEVQFSWFVDDVEVHTAQTQPREEQFNSTFRSVSELPIMHQDWLNGKEFKCRVNSAAFPAPIEKTISKTKGRPKAPQVYTIPPPKEQMAKDKVSLTCMITDFFPEDITVEWQWNGQPAENYKNTQPIMDTDGSYFVYSKLNVQKSNWEAGNTFTCSVLHEGLHNHHTEKSLSHSPGK
light: DVVLTQTPASVSEPVGGTVTIKCQATESINRNCAWYQQKPGQPPKLLIYRASTLASGVPSRFKGSGSGTEFTLTISDLECADAATYYCQCTDYGTYYVAFGGGTEVVVKRADAAPTVSIFPPSSEQLTSGGASVVCFLNNFYPKDINVKWKIDGSERQNGVLNSWTDQDSKDSTYSMSSTLTLTKDEYERHNSYTCEATHKTSTSPIVKSFNRNEC
notes: Rabbit variable regions on mouse IgG1 heavy and mouse light chain constant regions; Antagonist antibody
- binding result [2]: binds
